Eleven substances from patent US20120100140A1 can be followed below.

Test [1] concerns the target CD64 (FcγRI) (UniProt P12314). Briefly: solution affinity SPR: inhibition of CD64 binding to immobilized IgG1 MAb.
Test [2] deals with CD64 (FcγRI) (UniProt P12314). Briefly: solution affinity SPR: antibody titrated into CD64, inhibition of CD64 binding to immobilized IgG1 MAb; average of two titrations.
The next test has as its target CD32a (UniProt P12318). The experiment in a line: solution affinity SPR: inhibition of CD32a binding to immobilized IgG1 MAb.
The target of test [3] is CD16 (FcγRIIIa V158) (UniProt P08637). The experiment in a line: solution affinity SPR: inhibition of CD16 binding to immobilized IgG1 MAb.
For test [4] the target is unchanged. The experiment in a line: solution affinity SPR: antibody titrated into CD16, inhibition of CD16 binding to immobilized IgG1 MAb; average of two titrations.

Chain of CD64 (FcγRI) (P12314 16-288 limits assumed): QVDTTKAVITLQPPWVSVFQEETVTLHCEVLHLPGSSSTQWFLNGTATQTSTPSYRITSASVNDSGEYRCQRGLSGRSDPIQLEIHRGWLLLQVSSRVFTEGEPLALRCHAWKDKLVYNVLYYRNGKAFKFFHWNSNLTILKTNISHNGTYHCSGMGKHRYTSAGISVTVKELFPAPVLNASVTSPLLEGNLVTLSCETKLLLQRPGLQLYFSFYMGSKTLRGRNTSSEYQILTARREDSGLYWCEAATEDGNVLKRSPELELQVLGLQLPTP
Chain of CD16 (FcγRIIIa V158) (P08637 17-208 F176V limits assumed): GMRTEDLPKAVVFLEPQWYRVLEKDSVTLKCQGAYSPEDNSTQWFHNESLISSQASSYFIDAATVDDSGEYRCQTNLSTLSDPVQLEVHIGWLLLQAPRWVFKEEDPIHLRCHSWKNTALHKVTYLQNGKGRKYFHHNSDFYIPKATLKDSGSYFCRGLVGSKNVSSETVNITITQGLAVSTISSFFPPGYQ
Chain of CD32a (P12318 34-217 limits assumed): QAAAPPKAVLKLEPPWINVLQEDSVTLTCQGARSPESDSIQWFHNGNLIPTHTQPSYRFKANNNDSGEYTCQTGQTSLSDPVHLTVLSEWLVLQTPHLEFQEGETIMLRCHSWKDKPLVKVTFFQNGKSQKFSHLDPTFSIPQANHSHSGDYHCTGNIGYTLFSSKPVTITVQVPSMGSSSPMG

A word on the IC50: it is the concentration that gives 50% inhibition. A low value points to greater potency in that assay. In turn, “EAG2378 (hu5c8 aglycosylated IgG1 T299R) (antibody)” registered an IC50 with CD64 (FcγRI) [1] of 5970 µM. This counts as millimolar.
On the same count and under the same terms, to “EAG2380 (hu5c8 aglycosylated IgG1 T299F) (antibody)” belongs 345 µM; to “EAG2390 (hu5c8 aglycosylated IgG1 T299P) (antibody)”, 392 µM.
On to “IgG1 T299A (hu5c8 aglycosylated IgG1) (antibody)”, for which the IC50 with CD64 (FcγRI) [2] was found to be 205 µM.
Turning to “EAG2389 (hu5c8 aglycosylated IgG1 T299Q) (antibody)”, the IC50 with CD64 (FcγRI) [1] came to 455 µM.
Regarding “EAG2379 (hu5c8 aglycosylated IgG1 T299E) (antibody)”, the IC50 in the test with CD32a turned out to be 1280 µM; with CD64 (FcγRI) [1] it was 196 µM.
With “EAG2377 (hu5c8 aglycosylated IgG1 T299N) (antibody)”, in the test with CD64 (FcγRI) [1], the IC50 worked out at 586 µM.
For the substance “CN578 (hu5c8 aglycosylated IgG1 T299K) (antibody)”, the IC50 in the test with CD16 (FcγRIIIa V158) [3] was 1320 µM; with CD64 (FcγRI) [2], 1420 µM.
In the test with CD16 (FcγRIIIa V158) [3], “EAG2478 (CN578-Fc; agly IgG1 Fc T299K, no Fab) (from UniProt P0DOX5 218-448)” registered an IC50 of 6000 µM. That is a millimolar value.
As to “IgG1 control antibody (hu5c8 wild-type glycosylated IgG1)”, the values for the IC50 with CD16 (FcγRIIIa V158) [4], with CD16 (FcγRIIIa V158) [3] and with CD64 (FcγRI) [2] were 100 µM, 105 µM and 9.64 µM, respectively.
“EAG2476 (YC406-Fc; agly IgG4-Fc T299K, T307P, L309K, D399S, no Fab) (from UniProt P01861 99-325)” showed an IC50 with CD16 (FcγRIIIa V158) [3] of 1320 µM.
